Test results published in US20210363269A1 (ALX ONCOLOGY, published 2021).

Columns and labels:
Assay in all cases: SPR, Langmuir fit
[1] = target: T1, high affinity SIRP-α D1 variant CV1-3
T1 chain: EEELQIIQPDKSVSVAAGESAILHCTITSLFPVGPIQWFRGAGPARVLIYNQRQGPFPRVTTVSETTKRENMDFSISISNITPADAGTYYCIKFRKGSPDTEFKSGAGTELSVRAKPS
Procedure, shortened: (§1)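 scFv-Fc antibody clones were captured from pre-filtered culture media onto anti-human IgG Fc, amine-coupled at about 4000 RU on a GLC chip in a ProteOn XPR36 instrument. SIRP analytes were passed over in PBS pH 7.4 with 0.01% Tween-20 at 25° C, and responses were double-referenced against interspot and buffer-blank signals. Curves were fitted to a 1:1 Langmuir model. Dissociation rate constants (koff) were taken from those fits.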

[2] = target: T2, cynomolgus SIRP-α D1 domain (cyno2) (cynomolgus monkey, UniProt Q5TFQ8 30-148 (human entry), limits assumed)
T2 chain: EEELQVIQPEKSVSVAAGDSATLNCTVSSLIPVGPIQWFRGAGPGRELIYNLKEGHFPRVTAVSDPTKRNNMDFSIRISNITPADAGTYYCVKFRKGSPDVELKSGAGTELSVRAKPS
Procedure, shortened: as §1

[3] = target: T3, mouse 129 SIRP-α D1 domain (mouse (129 strain), UniProt P97797 32-150)
T3 construct: also called m129
T3 chain: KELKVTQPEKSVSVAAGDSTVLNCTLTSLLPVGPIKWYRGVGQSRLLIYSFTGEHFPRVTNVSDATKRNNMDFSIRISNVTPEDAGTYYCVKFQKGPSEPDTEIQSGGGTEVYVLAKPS
Procedure, shortened: as §1

[4] = target: T4, human SIRP-α v1 D1 domain (human, UniProt P78324 31-149)
T4 construct: also called human v1
Procedure, shortened: as §1

[5] = target: T5, C57BL/6 mouse SIRP-α D1 domain (mouse (C57BL/6 strain), UniProt P97797 32-148)
T5 sequence: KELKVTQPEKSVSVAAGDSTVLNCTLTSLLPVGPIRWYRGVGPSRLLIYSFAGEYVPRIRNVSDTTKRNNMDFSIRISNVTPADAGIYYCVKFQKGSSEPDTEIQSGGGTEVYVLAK
Procedure, shortened: as §1

human SIRPγ isoform 1 = target: T6, human SIRPγ isoform 1 (human, UniProt Q9P1W8 29-147)
T6 construct: also called SIRPg; sirpg
Procedure, shortened: as §1

[6] = target: T7, cynomolgus SIRP-α D1 domain (cyno1) (cynomolgus monkey, UniProt Q5TFQ8 30-148 (human entry), limits assumed)
T7 chain: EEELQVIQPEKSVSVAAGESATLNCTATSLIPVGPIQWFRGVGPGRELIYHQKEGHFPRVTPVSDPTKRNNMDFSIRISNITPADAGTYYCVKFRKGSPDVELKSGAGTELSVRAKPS
Procedure, shortened: as §1

human SIRPβ isoform 1 = target: T8, human SIRPβ isoform 1 (human, UniProt O00241 30-148)
T8 construct: also called SIRPb; sirpb1
Procedure, shortened: as §1

[7] = target: T9, human SIRP-α v2 D1 domain (human)
T9 construct: also called human v2
Procedure, shortened: as §1

[8] = target: T10, NOD mouse SIRP-α D1 domain (mouse (NOD strain))
T10 chain: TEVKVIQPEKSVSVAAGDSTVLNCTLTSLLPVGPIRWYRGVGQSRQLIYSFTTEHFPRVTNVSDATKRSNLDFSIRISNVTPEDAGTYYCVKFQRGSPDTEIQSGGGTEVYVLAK
Procedure, shortened: as §1

T8 sequence (O00241 30-148 limits assumed): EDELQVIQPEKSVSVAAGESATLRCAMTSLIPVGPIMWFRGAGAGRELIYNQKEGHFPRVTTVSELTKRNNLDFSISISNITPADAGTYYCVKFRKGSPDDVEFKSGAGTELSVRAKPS
T9 sequence (chain, as listed by the source limits assumed): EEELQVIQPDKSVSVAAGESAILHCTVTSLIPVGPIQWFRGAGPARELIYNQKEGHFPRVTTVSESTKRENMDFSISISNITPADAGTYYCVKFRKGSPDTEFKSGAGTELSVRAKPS
T6 sequence (Q9P1W8 29-147 limits assumed): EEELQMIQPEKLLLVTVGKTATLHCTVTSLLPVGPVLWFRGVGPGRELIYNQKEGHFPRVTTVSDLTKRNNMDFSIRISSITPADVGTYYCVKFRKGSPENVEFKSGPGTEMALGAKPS
T4 sequence (P78324 31-149 limits assumed): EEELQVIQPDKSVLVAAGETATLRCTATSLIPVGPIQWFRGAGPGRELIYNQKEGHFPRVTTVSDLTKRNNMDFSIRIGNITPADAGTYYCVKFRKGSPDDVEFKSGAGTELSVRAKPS

Binder | koff [1] | koff [2] | koff [3] | koff [4] | koff [5] | koff (human SIRPγ isoform 1) | koff [6] | koff (human SIRPβ isoform 1) | koff [7] | koff [8]
S59 (scFv, V domains shown, also called clone 59) VH: DVQLVESGGGVVRPGESLRLSCAVSGFRFSSHAMSWVRQAPGKGLEWVSGISSGGDTYYVDSVKGRFTISRDNSKNTLYLQVNSLTAEDTAIYYCARETWNHLFDYWGLGTLVTVSS VL: ALTQPASVSANLGETVKITCSGGDSSSHYYGWYQQKSPGSAPVTVIYSDDERPSDIPSRFSGSASGSTATLTITGVRVEDEAIYYCGAYDGSTYANTFGAGTTLTVL | 8.19e-05 s⁻¹ | 0.000113 s⁻¹ | 0.000209 s⁻¹ | 4.98e-05 s⁻¹ | 0.00239 s⁻¹ | 4.28e-05 s⁻¹ | 0.000106 s⁻¹ | 0.000107 s⁻¹ | 8.63e-05 s⁻¹ | 0.00135 s⁻¹
S76 (scFv, V domains shown, also called clone 76) VH: DVQLVESGGGVVRPGESLRLSCAASGFTFSSYAMSWVRQAPGKGLEWLAGISAGGSDTYYIDSVKGRFTISRDNSKNSLYLQMNSLTAEDTAVYYCARETWNHLFDYWGLGTLVTVSS VL: ALTQPASVSANPGETVKITCSGGDWYSTYYGWYQQKSPGSAPVTVIHSDDKRPSDIPSRFSGSASGSAATLTITGVRVEDEAVYYCAGYDGRTYINTFGAGTTLTVL | 0.000155 s⁻¹ | 0.000269 s⁻¹ | 0.000179 s⁻¹ | 0.00014 s⁻¹ | 0.000998 s⁻¹ | 0.000177 s⁻¹ | 0.000277 s⁻¹ | 0.000187 s⁻¹ | 0.000209 s⁻¹ | 0.000576 s⁻¹
S17 (scFv, V domains shown, also called clone 17) VH: DVQLVESGGAVVRPGESLRLSCAASGFTFSSYAMSWVRQAPGKGLEWLAGISAGGSDTYYIDSVKGRFTISRDNSENSLYLQMNSLTAEDTAVYYCARETWNHLFDYWGLGTLVTVSS VL: ALTQPASVSANPGETVKITCSGGDWYSTYYGWYQQKSPGSAPVTVIHSDDKRPSDIPSRFSGSASGSAATLTITGVRVEDEAVYYCAGYDGRTYINTFGAGTTLTVL | 0.000154 s⁻¹ | 0.000207 s⁻¹ | 0.000234 s⁻¹ | 0.000124 s⁻¹ | 0.00113 s⁻¹ | 0.000102 s⁻¹ | 0.000193 s⁻¹ | 0.000125 s⁻¹ | 0.000197 s⁻¹ | 0.000612 s⁻¹
S70 (scFv, V domains shown, also called clone 70) VH: DVQLVESGGGVVRPGESLRLSCAASGFTFSSYAMSWVRQAPGKGLEWLAGISAGGSDAYYIDSVKGRFTISRDNSKNSLYLQMNSLTAEDTAVYYCARETWNHLFDYWGLGTLVTVSS VL: ALTQPASVSANPGETVKITCSGGDWYSTYYGWYQQKSPGSAPVTVIHSDDKRPSDIPSRFSGSASGSAATLTITGVRVEDEAVYYCAGYDGRTYINTFGAGTTLTVL | 0.00026 s⁻¹ | 0.000245 s⁻¹ | 0.00027 s⁻¹ | 0.000225 s⁻¹ | 0.000987 s⁻¹ | 0.000222 s⁻¹ | 0.000296 s⁻¹ | 0.000225 s⁻¹ | 0.00029 s⁻¹ | 0.000672 s⁻¹
S60 (scFv, V domains shown, also called clone 60) VH: DVQLVDSGGGVVRPGESLRLSCAASGFTFSSYAMSWVRQAPGKGLEWLAGISAGGSDTYYIDSVKGRFTISRDNSKNSLYLQMNSLTAEDTAVYYCARETWNHLFDYWGLGTLVTVSS VL: ALTQPASVSANPGETVKITCSGGDYYSTYYGWYQQKSPGSAPVTVIHSDDKRPSDIPSRFSGSASGSAATLTITGVRVEDEAVYFCGAYDGRTYINTFGAGTTLTVL | 0.000145 s⁻¹ | 0.000175 s⁻¹ | 0.000221 s⁻¹ | 0.00014 s⁻¹ | 0.0015 s⁻¹ | 0.0001 s⁻¹ | 0.000192 s⁻¹ | 0.000153 s⁻¹ | 0.000186 s⁻¹ | 0.000726 s⁻¹
S56 (scFv, V domains shown, also called clone 56) VH: DVQLVESGGGVVRPGESLRLSCAASGFTFSSYAMSWVRQAPGKGLEWLAGISAGGSDTYYIDSVKGRFTISRDNSKNSLYLQVNSLTAEDTAVYYCARETWNHLFDYWGLGTLVTVSS VL: ALTQPASVSANPGETVKITCSGGGYYSTYYGWYQQKSPGSAPVTVIHSDDKRPSDIPSRFSGSASGSAATLTITGVRVEDEAVYYCAGYDGRTYINTFGAGTTLTVL | 0.000203 s⁻¹ | 0.00028 s⁻¹ | 0.000406 s⁻¹ | 0.000228 s⁻¹ | 0.00429 s⁻¹ | 0.000215 s⁻¹ | 0.000295 s⁻¹ | 0.000362 s⁻¹ | 0.000286 s⁻¹ | 0.00106 s⁻¹
S71 (scFv, V domains shown, also called clone 71) VH: DVQLVESGGGVVRPGESLRLSCAASGFTFSSYAMSWVRQAPGKGLEWLAGISAGGSDTYYIDSVKGRFTISRDNSKNSLYLQMNSLTAEDTAVYYCARETWNHLFDYWGLGTLVTVSS VL: ALTQPASVSANPGETVKITCSGGGYYSTYYGWYQQKSPGSAPVTVIHSDDKRPSDIPSRFSGSASGSAATLTITGVRVEDEAVYYCAGYDARTYINTFGAGTTLTVL | 0.000379 s⁻¹ | 0.000313 s⁻¹ | 0.000417 s⁻¹ | 0.000335 s⁻¹ | 0.00341 s⁻¹ | 0.000316 s⁻¹ | 0.000364 s⁻¹ | 0.000388 s⁻¹ | 0.000403 s⁻¹ | 0.00112 s⁻¹
S23 (scFv, V domains shown, also called clone 23) VH: DVQLVESGGGVVRPGESLRLSCAASGFTFSSHAMSWVRQAPGKGLEWLAGISAGGSDTYYIDSVKGRFTISRDNSKSSLYLRMNSLTAEDTAVYYCARETWNHLFDYWGLGTLVTVSS VL: ALTQPASVSANPGETVKITCSGGDYYSTYYAWYQQKSPGSAPVTVIHSDDERPSDIPSRFSGSASGSAATLIITGVRVEDEAVYFCGGYDGRTYINTFGAGTTLTVL | 0.000106 s⁻¹ | 0.000183 s⁻¹ | 0.000134 s⁻¹ | 8.35e-05 s⁻¹ | 0.00132 s⁻¹ | 0.000104 s⁻¹ | 0.00016 s⁻¹ | 0.000114 s⁻¹ | 0.000135 s⁻¹ | 0.000823 s⁻¹
S65 (scFv, V domains shown, also called clone 65) VH: DVQLVESGGGVVRPGESLRLSCAASGFTFSSYAMSWVRQAPGKGLEWLAGISAGGSDTYYIDSVKGRFTISRDNSKNSLYLQMNSLTAEDTAVYYCARETWNHLFDYWGLGTLVTVSS VL: ALTQPASVSANPGETVKITCSGGDYYSTYYGWYQQKSPGSAPVTVIHSDDKRPSDIPSRFSGSASGSAATLTITGVRVEDEAVYFCGAYDGRTYINTFGAGTTLTVL | 0.000147 s⁻¹ | 0.00019 s⁻¹ | 0.000159 s⁻¹ | 0.000145 s⁻¹ | 0.000786 s⁻¹ | 0.000134 s⁻¹ | 0.000188 s⁻¹ | 0.000154 s⁻¹ | 0.000172 s⁻¹ | 0.000607 s⁻¹
S66 (scFv, V domains shown, also called clone 66; scFv-Fc form of AB66) VH: DVQLVESGGGVVRPGESLRLSCAASGFTFSSYAMSWVRQAPGKGLEWLAGISAGGSDTYYIDSVKGRFTISRDNPKNSLYLQMSSLTAEDTAVYYCARETWNHLFDYWGLGTLVTVSS VL: ALTQPASVSANPGETVKITCSGGDYYSTYYAWYQQKSPGSAPVTVIHSDDKRPSDIPSRFSGSASGSAATLIITGVRVEDEAVYYCGGYDGRTYINTFGAGTTLTVL | 0.00011 s⁻¹ | 0.000255 s⁻¹ | 0.000127 s⁻¹ | 0.000118 s⁻¹ | 0.00102 s⁻¹ | 0.000126 s⁻¹ | 0.00025 s⁻¹ | 0.000138 s⁻¹ | 0.000206 s⁻¹ | 0.00049 s⁻¹
S69 (scFv, V domains shown, also called clone 69) VH: DLQLVESGGGVVRPGESLRLSCAASGFTFSSYAMSWVRQAPGKGLEWLAGISAGGSDTYYIDSVKGRFTISRDNSKNSLYLQMNSLTAEDTAVYYCARETWNHLFDYWGLGTLVTVSS VL: ALTQPASVSANPGETVKIICSGGDYYSTYYGWYQQKSPGSAPVTVIHSDDKRPSDIPSRFSGSASGSAATLTITGVRVEDEAVYFCGAYDGRTYINTFGAGTTLTVL | 0.000233 s⁻¹ | 0.000216 s⁻¹ | 0.000246 s⁻¹ | 0.000205 s⁻¹ | 0.000765 s⁻¹ | 0.000199 s⁻¹ | 0.000255 s⁻¹ | 0.000229 s⁻¹ | 0.000267 s⁻¹ | 0.000709 s⁻¹
